How the values were obtained:
[1] = target: PKC1 tagged at its COOH-terminus with the HA epitope (PKC1^HA) (UniProt P24583)
[2] = target: 1,3-β-glucan synthase (GS) complex (UniProt P38631)
Sequence of 1,3-β-glucan synthase (GS) complex (P38631 whole entry, looked up, one chain of several): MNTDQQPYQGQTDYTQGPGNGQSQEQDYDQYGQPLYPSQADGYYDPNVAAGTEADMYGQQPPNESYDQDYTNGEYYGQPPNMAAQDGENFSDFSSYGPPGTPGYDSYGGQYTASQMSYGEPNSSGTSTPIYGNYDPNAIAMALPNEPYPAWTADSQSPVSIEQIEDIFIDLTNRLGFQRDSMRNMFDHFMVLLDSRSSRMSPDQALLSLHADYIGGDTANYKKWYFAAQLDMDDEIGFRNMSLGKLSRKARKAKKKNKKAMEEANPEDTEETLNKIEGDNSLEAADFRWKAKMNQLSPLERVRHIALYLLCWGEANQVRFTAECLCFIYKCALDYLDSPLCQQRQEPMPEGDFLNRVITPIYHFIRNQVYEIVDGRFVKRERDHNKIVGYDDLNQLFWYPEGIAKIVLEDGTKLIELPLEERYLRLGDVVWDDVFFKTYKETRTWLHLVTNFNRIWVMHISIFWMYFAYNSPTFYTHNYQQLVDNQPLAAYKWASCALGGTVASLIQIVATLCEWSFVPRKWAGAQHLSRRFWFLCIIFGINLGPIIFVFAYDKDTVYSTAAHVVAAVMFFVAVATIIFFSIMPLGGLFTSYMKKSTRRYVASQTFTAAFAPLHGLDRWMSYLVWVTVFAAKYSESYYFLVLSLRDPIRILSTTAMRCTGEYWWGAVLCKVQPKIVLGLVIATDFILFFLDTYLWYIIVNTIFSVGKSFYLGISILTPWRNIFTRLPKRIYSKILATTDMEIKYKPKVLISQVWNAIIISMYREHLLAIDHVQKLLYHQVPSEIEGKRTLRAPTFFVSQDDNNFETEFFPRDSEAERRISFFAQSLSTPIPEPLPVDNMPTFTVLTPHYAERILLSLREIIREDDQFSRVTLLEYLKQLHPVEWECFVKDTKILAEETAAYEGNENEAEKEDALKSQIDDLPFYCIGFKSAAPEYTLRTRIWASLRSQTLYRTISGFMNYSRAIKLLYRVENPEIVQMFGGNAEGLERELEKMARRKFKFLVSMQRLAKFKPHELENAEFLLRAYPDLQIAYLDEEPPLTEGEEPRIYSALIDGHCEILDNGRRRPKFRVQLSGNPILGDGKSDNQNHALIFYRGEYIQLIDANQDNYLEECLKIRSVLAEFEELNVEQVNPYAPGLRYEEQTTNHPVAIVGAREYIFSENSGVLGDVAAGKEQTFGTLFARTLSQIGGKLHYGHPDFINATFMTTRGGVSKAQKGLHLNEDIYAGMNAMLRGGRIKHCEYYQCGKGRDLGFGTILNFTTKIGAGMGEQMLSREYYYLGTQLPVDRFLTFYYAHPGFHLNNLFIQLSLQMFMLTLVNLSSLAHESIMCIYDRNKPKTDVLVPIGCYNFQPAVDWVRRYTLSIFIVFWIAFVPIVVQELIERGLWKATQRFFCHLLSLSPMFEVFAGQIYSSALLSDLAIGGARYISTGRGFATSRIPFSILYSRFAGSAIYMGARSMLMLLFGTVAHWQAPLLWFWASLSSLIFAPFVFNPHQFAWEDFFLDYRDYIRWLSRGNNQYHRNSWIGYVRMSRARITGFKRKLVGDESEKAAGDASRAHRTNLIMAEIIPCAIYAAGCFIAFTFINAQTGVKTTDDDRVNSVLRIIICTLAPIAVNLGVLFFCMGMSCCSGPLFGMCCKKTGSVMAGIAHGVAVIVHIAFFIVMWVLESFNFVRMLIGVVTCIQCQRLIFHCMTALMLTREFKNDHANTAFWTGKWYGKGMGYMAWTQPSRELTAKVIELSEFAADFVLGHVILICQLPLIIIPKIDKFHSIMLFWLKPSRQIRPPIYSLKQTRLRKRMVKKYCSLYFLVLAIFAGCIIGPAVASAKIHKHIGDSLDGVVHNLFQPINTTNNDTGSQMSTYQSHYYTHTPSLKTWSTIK

Sequence of PKC1 tagged at its COOH-terminus with the HA epitope (PKC1^HA) (P24583 whole entry): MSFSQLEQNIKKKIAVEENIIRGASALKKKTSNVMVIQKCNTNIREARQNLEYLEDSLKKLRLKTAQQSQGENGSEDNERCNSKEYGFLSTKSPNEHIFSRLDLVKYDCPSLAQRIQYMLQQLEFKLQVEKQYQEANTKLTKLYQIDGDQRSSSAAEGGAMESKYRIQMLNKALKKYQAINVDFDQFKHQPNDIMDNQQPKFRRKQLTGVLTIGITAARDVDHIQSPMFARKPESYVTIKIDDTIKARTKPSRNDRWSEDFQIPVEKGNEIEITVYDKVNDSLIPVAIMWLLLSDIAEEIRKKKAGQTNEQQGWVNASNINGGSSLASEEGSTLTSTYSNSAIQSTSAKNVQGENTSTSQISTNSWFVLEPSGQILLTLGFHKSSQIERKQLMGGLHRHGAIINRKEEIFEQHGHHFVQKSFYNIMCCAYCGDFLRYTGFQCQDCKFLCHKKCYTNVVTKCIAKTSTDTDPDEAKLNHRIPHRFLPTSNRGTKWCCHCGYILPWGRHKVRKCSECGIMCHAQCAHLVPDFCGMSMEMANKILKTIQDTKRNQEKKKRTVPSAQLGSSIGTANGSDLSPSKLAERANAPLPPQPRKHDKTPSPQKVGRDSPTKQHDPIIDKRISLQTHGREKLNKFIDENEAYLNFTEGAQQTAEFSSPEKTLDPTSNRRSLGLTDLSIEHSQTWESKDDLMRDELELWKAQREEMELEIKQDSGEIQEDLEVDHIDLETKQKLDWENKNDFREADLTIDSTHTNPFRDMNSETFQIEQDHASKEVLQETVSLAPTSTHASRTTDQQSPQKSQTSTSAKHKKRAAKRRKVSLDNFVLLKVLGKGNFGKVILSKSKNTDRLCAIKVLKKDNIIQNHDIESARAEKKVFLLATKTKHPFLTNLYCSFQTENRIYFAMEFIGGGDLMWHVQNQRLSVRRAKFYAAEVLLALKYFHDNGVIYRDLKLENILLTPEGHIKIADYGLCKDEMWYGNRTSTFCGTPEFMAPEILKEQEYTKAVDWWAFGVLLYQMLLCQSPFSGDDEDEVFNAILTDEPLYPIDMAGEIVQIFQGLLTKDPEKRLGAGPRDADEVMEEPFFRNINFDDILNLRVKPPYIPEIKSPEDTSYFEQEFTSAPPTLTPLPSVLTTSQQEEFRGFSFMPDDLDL

| Substance | Phosphorylation of synthetic Bck1 peptide by PKC1^HA [1] | GS activity in the membrane fraction of the cal1-1 mutant [2] |
| --- | --- | --- |
| Recombinant GST-Cdc42 | GST-Cdc42 did not confer cofactor-dependent stimulation on PKC1 |  |
| Recombinant mutant Rho1 (G19V), constitutively active GST-Rho1 |  | GS activity was restored by the addition of constitutively activated Rho1 |

Reference: patent US20020168748
